Measured values reported in US20190330316A1 (PROTHENA BIOSCIENCES, published 2019).
Ends that are not written are not given here.

Legend:
[1] = biological target: T1, 4R0N human tau (383 amino acids) (human, UniProt P10636 1-758, radio-iodinated (125I) in the precipitation screen); assay: precipitation of 125I-labeled tau by hybridoma supernatants
T1 construct: Purified from SF9 cells infected with a tau baculovirus construct; also called 4RON human tau; 4R0N tau
Procedure: Monoclonal antibody 16G7 was prepared according to a modification of the method of Kohler and Milstein (G. Kohler and C. Milstein (1975) Nature 256:495-497). Human tau containing all 4 microtubule binding repeats, and lacking the N-terminal splice variants (4R0N tau, 383 amino acids) was used in all injections and screening assays. Tau was purified from SF9 cells infected with a tau-containing baculovirus construct (J. Knops et al. (1991) J Cell Biol 115(5):725-33). Six week old ALI mice were injected with 100 μg of purified tau at two week intervals. Tau was emulsified in complete Freund's adjuvant for the first immunization and in incomplete Freund's adjuvant for all subsequent immunizations. Serum samples were taken three days after the third injection to assess the titer of these animals. The highest titer mouse was injected intravenously with 100 μg of tau in 500 μL of PBS two weeks after receiving its third injection. The myeloma fusion occurred three days later using SP2/0 as the fusion partner. Supernatants from wells containing hybridoma cells were screened for their ability to precipitate ¹²⁵I-labeled tau. Tau was radio-iodinated using immobilized glucose oxidase and lactoperoxidase according to the manufacturer's instructions (Bio-Rad). […] The isotypes of 16G7 was determined to be gamma 1 kappa.

[2] = biological target: T2, biotinylated peptide spanning amino acid residues 64-78 of SEQ ID NO:3 (human, also: biotinylated, position not given here); assay: ELISA, biotinylated peptides on streptavidin plate
T2 peptide: VTQARMVSKSKDGTG
Procedure: (§1) A range of overlapping biotinylated peptides spanning the entire 383aa 4RON human tau protein were used for mapping the murine 16G7 antibody. Additional peptides were used to model potential post-translational modifications of the C- and N-terminal ends of the protein.
(§2) Biotinylated peptides were bound to separate wells of a streptavidin-coated ELISA plate. The plate was blocked and treated with murine 16G7, followed by incubation with a horseradish peroxidase-conjugated anti-mouse antibody. After thorough washing, OPD was applied to the plate and allowed to develop. The plate was read at 450 nm absorbance. Background subtraction was performed with absorbance values from wells containing no primary antibody, and a threshold for positive binding was set to 0.2 absorbance units.

[3] = biological target: T3, biotinylated peptide spanning amino acid residues 55-69 of SEQ ID NO:3 (human, also: biotinylated, position not given here); assay: ELISA, biotinylated peptides on streptavidin plate
T3 peptide: SLEDEAAGHVTQARM
Procedure: as §1, §2

Measured: binding result

T1 sequence (P10636 other isoform, or with tags, fused parts or gaps limits assumed): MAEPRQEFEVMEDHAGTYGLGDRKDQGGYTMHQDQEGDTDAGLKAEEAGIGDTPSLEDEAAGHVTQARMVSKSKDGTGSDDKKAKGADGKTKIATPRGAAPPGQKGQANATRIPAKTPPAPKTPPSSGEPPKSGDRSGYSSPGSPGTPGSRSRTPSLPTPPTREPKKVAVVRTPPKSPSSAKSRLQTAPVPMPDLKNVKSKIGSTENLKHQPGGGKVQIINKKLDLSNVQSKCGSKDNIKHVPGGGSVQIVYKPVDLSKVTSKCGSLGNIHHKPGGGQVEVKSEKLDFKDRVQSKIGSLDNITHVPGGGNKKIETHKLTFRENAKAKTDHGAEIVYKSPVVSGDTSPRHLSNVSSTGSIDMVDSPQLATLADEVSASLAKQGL

B1: murine 16G7 monoclonal antibody (antibody, V domains shown)
VH: QVQLQQPGSVLVRPGASVKLSCKASGYTFTSSWIHWAKQRPGQGLEWIGEIYPNSGNTNYNEKFKGKATLTVDISSSTAYVDLTSLTSEDSAVYYCARLGWLIPLDYWGQGTTLIVSS
VL: DIVLSQSPSSLAVSVGEKVTMSCKSSQSLLDGNDQKNYLAWYQQKPGQSPKLLMYWASTRESGVPDRFTGSGSGTDFTLTISSLKAEDLAVYYCQQFYDYPWTFGGGTKLEIKR
notes: also called mouse 16G7; m16G7
binds: all assays above
